Source: the DeepSol protein solubility set

Assay: soluble on expression in E. coli; label from the status in PepcDB or PDB records

Soluble on expression in E. coli, not soluble:
MNDELKNKSGKVKVMYVRSDDDSDKRTHNPRTGKGGGRPAKSRTDGGRRPARDERNNQSRDRKHETSPWRTVSRAPGDETPEKVDHGGISGKSFIDPEVLRRQRAEETRVYGENACQALFQSRPDAIVRAWFIQSVTPRFKEALRWMAANRKAYHVVDEAELAKASGTEHHGGVCFLIKKRNGTTVKQWVKQAADQDCVLALEDVANPHNLGGMMRSCAHFGVKGVVVQDAALLESGAAIRTAEGGAEHVQPITGESIVDVLDDFRQAGYTVVTTSSDRGQALFSTTLPEKMVLVLGREYDYLPEAAREPDDLCVKINGTGNVESLNVSVATGVLLAEWWRQNKA
MAHHHHHHMDTDKIKKRINAYNQDGIRNSALAIILCHRYEYPHLLLLQNIESQTYHLLSGKYKSWEKPREVLKKKLQKYVNQIRDMHFGTSHFNTEEKETEDPIEIGEFLGEWWKTQFNSVYLPYLPAHITRPKEYIRLYQVTLTSRCIFHLPPGFTLKALPLFDLSTCGVAIGGLTSVLSRFKLHCMVPVEE
DGRITGMIQVAIDVTEQVVARKKLEESESRFRALVNASSDVVYRMNADWTVMRELEGRDFLTPAGTAMADWVETYTYREDRALVKATAAAAIEGKRIFELEHRVLKADGTIGWTFSRAIPILDEQ
MPTPPVSVLVAQMGEGPAPLYARVKQMIIQQIDNGSWPPHHRVPSESELVNELGFSRMTINRALRELTAEGLLVRMQGVGTFVAEPKGRSALFEVNNIADEIAARGHQHSCQVITLAEEAAGSERALALDMREGQRVFHSLIVHFENGVPVQIEDRYVNAAIAPDYLKQDFTRQTPYAYLSQVAPLTEGEHVVEAILAEPEECTLLQIDRGEPCLLIRRRTWSGRQPVTAARLIHPGSRHRLEGRFSK
MGSDKIHHHHHHMRDLLQRPDLFSINTATLGYKTPLPAIIDACAARGIGAIAPWRRELQGEDLQQITRQLAASNMSVSGLCRSTYYTAPTLAERKLAIDDNRRALDDAAVLNAACYMQVVGGLPTGTKDLYEAREQVKQGIRQLLPHSKDVGVPIALEPLHPMTAADRSCLCTLRQALDWCDELDPDGEFGLGVAVDVYHVWWDPDLASQILRAGKRILAFHVSDWLMPTTDLVNDRGMPGDGVINIPSIRRLVENAGFNGAIELEIFSPYWWQKDINSTGNDSNLLIVFYVQIMPDDLVMQLHRF
MIRQSVFLLAAIGATVFAQNDSFDLVDANNDGKLSEKELITFMRKRGRPDGQEYFQRFDLDRNGHLDISEFVPLVYEMSRRPVDMDYEFFKKMDLNDDGIVDKAEVEKIRKDNNDRIIDGILSIADTNRDGQLTYAEFKNHLSSGAKSLSPAEEQRNQALQLLSFIDANGDNKLDQLELYTFSQKTSTNKVTKSDVQQIFAMLDKNQDGYLTENELLQLAQQFSTIGNVRSTIPKV
MANFEDFLTLDLRIGTVTHAEEFKEARVPAIKLEIDFGELGMKQSSAQITKRYNPEDLIGQQIVAVVNFPPKRVAGFKSEVLVLGGVPEAGDVVLLQPNMELPNGTKIS
MALSSAPILITGASQRVGLHCALRLLEHGHQVIISYRTEHASVAQLRQAGAHTLHGDFSSEASIMAFIEQLKSHTSSLRAIVHNASEWLAETPGDEAENFTRMFSVHMLAPYLINLHCEALLHASDVADIVHISDDVTRKGSSKHIAYCATKAGLESLTLSFAARFAPLVKVNGIAPALLMFQPKDDAAYRANALAKSAMGIEPGAEVIYQSLRYLLDSTYVTGTTLTVNGGRHV
MPMLDMIVSRVITLLQGRESRSLRVTQAELAAGLSKTVYLHNAQLILPLPDLAFIQSLVAYDHHHPAVSTVLEAWAYGVRLHLQIHQQLLTALPLRELRRLPVTLTDHMSTPVKLAAAAGLSYASVIHWHDCWVLLEKQTLITALAREVMERQNIKLIWQE
MDVIKIGDIVARKSYQCDLLFRVIDIKEKNGEWEAILYGEDVRLVADAPCSDLVVIDEQEQQERKKREIELLEQSYRLFRQDYQAIKQKVEYRATGGYRVEKDFFQIPGRVLHLDGDPLYLRKCMDLYERIGVPVHGIYCEESEMPEKVGYWIEQFRPDILVITGHDSYSKSKGKVHELKAYRHSRHFVQTVKEARKKVPHLDQLIIFAGACQSHFESLIRAGANFASSPARVNIHALDPVYIVSRLSFTPFTETVDVWDVLRNTLTGEKGLGGVETKGVLRTGMPFRLIEDREENRRS
MGSDKIHHHHHHEVYIFTSHREPALDGLHYLYSYDGYHWDSIAGSWLKPEIGNKTPYYNYFTKQTEEQKYAPNSMMRDPSMTQGPDGTFHLVWTISWNGEQGFGYASSKDLIHWSEQREIKVMKDSLTNNVWAPEVFYDDEKEQFIVAWSSAIPVERYTAADSLGANKSHRAYYTTTKDFQTFTPAKAFYDPGFNSIDGFIVKRDKNDYVLIIKDNRKPGYSDLFCVSGPSAEGPYADPSVKFAPTYSEGPCAVKVGDEWLIYFDVYREGRFGAVSTKDFKNFTPIDDQISIPQGHKHGTIIEVPESVLLNLKAEEAKRFPQKD
MDNGDWGYMMTDPVTLNVGGHLYTTSLTTLTRYPDSMLGAMFGGDFPTARDPQGNYFIDRDGPLFRYVLNFLRTSELTLPLDFKEFDLLRKEADFYQIEPLIQCLNDPKPLYPMDTFEEVVELSSTRKLSKYSNPVAVIITQLTITTKVHSLLEGISNYFTKWNKHMMDTRDCQVSFTFGPCDYHQEVSLRVHLMEYITKQGFTIRNTRVHHMSERANENTVEHNWTFCRLARKTDD
MPPTGIFFNVNGKDIKEENVDPELTLAYYLRNKLGLRGTKLGCEEGVCGSCTVVLGTWDDSLNKAVYSAVNACLVPLFHVHKTFVITVEGVGSRDKIHPIQDRMARGHAVQCGFCSPGFVMSAYALLRNHPNPTIEQINAAIRANLCRCTGYRPILEALYSFSSSGGGCCGGKKAGAGCCKDLSSEDEAYEKLTSFNDFPEYDPSQEIIFPPSLRIFVDSENPVTLKGDRIELLLPKSIEQFKEFKKDRTVISSGLITRFIATRNPKEFSQKWITTKYVKEFNEVIENPETVVIGAAVNIQKMSDILSRSLSQNIGKEVDAFIKKFSSPQIANFATWTGGIVSGAKSSISVSDLLLLFNVLNAKLTLLTDSGDLTQVNIEEFVEKKLFATNTIVNTVFSSSITGQLFCLKLGETSEQDSTSFNFAALVGNNISRIFVGLGGPPKRLTSLEEHIFALKNLDVPDLCKTSGMGENKNIKIALTRLSKFMKNVEKTAETVDGLNYLQYFKPTERKSVGRPLANYFNERAITGEALYVNDIQTYNPVHLGFVLSTVPHAEILSIDATEALKLEGVVGFFGASDVPGNNSPGLQISNMNLPDDATIFADKKVESVGQVVGVIAANDVLLARRAAKLVKLEYKELPALVELKDAIVAKSLLGKVRHFGKSEYLVNESLVHSYKVLEGESSLGSQEHFYLETQSSLNYRIVHCSTQGTSFTQLMVAETMKIPAHKIIVKTKRMGGAFGGKLNNASWIACICSVVAKKLNRPTYGVGINSDGKVQGIHHQAWLNGGWSKDHTEGVTMVMGQFVDDVYNMGTVRYDGYPVKTNTNSNTAFRGYGNPQAKLVSEGVMRRIAREVGKSTEEVKKLNFAFEGEKRYLSGNIYSDAHIECWEYCTRWSDFEKRKETIENFNKTSKIVKRGIAMSSVRLALSHPGPPGHGVASLMINLDGSIQLSIGGTEMGQGLNQKMLQVCSEALKRPIDTITIVDCSTDKITNAPETGASHNADTNGLAVLACCERIMSRLQPIIDKNDGDWEKSIRDAYGAYVPLQCTEYGSVDREKLSIGEFEYPYNTTGACAVEMEVDTMTGYNRLLRVDIVMDVGESLNPAIDIGQIEGAFMQGYGLVTCEKITFNKETGQLNQNSAGQYKIPKSSDVPKDFRVKLLGINKANGAKVYSSKGIGEPPLMMSCGAVHSCIMNCIDDWRKENGIDKFVDTISPLSADKIQELCSCNN

Soluble on expression in E. coli, soluble:
SMSKHHKLARSLRSGPSDHDLKPNAATRDQLNIIVSYPPTKQLTYEEQDLVWKFRYYLTNQEKALTKFLKCVNWDLPQEAKQALELLGKWKPMDVEDSLELLSSHYTNPTVRRYAVARLRQADDEDLLMYLLQLVQALKYENFDDIKNGLEPTKKDSQSSVSENVSNSGINSAEIDSSQIITSPLPSVSSPPPASKTKEVPDGENLEQDLCTFLISRACKNSTLANYLYWYVIVECEDQDTQQRDPKTHEMYLNVMRRFSQALLKGDKSVRVMRSLLAAQQTFVDRLVHLMKAVQRESGNRKKKNERLQALLGDNEKMNLSDVELIPLPLEPQVKIRGIIPETATLFKSALMPAQLFFKTEDGGKYPVIFKHGDDLRQDQLILQIISLMDKLLRKENLDLKLTPYKVLATSTKHGFMQFIQSVPVAEVLDTEGSIQNFFRKYAPSENGPNGISAEVMDTYVKSCAGYCVITYILGVGDRHLDNLLLTKTGKLFHIDFGYILGRDPKPLPPPMKLNKEMVEGMGGTQSEQYQEFRKQCYTAFLHLRRYSNLILNLFSLMVDANIPDIALEPDKTVKKVQDKFRLDLSDEEAVHYMQSLIDESVHALFAAVVEQIH
MDIWYGTAAVPKDLDNSAVTIGVFDGVHRGHQKLINATVEKAREVGAKAIMVTFDPHPVSVFLPRRAPLGITTLAERFALAESFGIDGVLVIDFTRELSGTSPEKYVEFLLEDTLHASHVVVGANFTFGENAAGTADSLRQICQSRLTVDVIDLLDDEGVRISSTTVREFLSEGDVARANWALGRHFYVTGPVVRGAGRGGKELGFPTANQYFHDTVALPADGVYAGWLTILPTEAPVSGNMEPEVAYAAAISVGTNPTFGDEQRSVESFVLDRDADLYGHDVKVEFVDHVRAMEKFDSVEQLLEVMAKDVQKTRTLLAQDVQAHKMAPETYFLQAES
GPGSMPWEVKADNAYGIDYNKLIDKFGCKLITKDMIERMERLTGQKAHHFFRRNIFLSHRDFEKILDVYEKGELFYLYTGRGPSSESLHVGHLVPFLFTKYLQDTFKVPLVIQLTDDEKFIFKSNLTLEETHNYAYENMKDIIACGFDPELTFIFTNLEYIAELYPDILRIEKKISCSQIKSIFGFKDSCNVGKFAFPAVQAAPAFSSSFPHIFGGRTDIHCLVPHAIDQDPYFRMVRDVAPRLGYLKPSSIHSIFLPSLQGSQTKMSASVQNSSIFVNDNEESIRNKIMKYAFSGGQATEEEQRRLGANLDVDVSWQYLRFLMEDDEKLEEIGKKYSSGEMLSGEIKSILVQELVKLTKNHQKNREAINDDVIAKFTNKSREQLLKLFINKK
MTDTLLPAAPQPLEKEGDDYFRKGCNPLAQTGRSKLQNQRAALNQQILKAVRMRTGAENLLKVATNQKVREQVRLELSFVNSDLQMLKEELEGLNISVGVYQGTEEAFTIPLIPLGLKETKEVDFSIVFKDFILEHYSEDSYLYEDDIADLMDLRQACRTPSRDEAGVELLMSYFIQLGFVESRFFPPTRHMGLLFTWYDSFTGVPVSQQTLLLEKASVLFNIGALYTQIGTRCNRQTQAGLESAVDAFQRAAGVLNYLKETFTHTPSYDMSPAMLSVLVKMMLAQAQESVFEKVCLPGIQNEFFVLVKVAQEAAKVAEAYRQLHAAMSQEPVKENIPYSWASVAYVKAYHYGALAHYFAATLLIDHQLKPGADEDHQEKCLSQLYDRMPEGMTPLATLKNAGQRVLLGKGHLHRAIGFHEESLREANLCKKLRDIQVLRDVLSAAHQRTQLKHTQHREDDDLLNLIDAPDVLPKTEREVKITFPDFSKVTVTDFFQKLGPLSVFSASKRWSPPRGIHFTVEEGDLGFTLRGNTPVQVHFLDPHCSASLAGAKEGDYIVSIQGVDCKWLTVSEVMKLLKSFGGEEVEMKVVSLLDSTSSMHNKCATYSVGMQKTYSMICLSMDDDDKADKTKKISKKLSFLSWGTSKNRQKSASTLCLPEVGLARSQNKKKLPTPFSLLNSDSSLY
MIVLALDVYEGERAIKIAKSVKDYISMIKVNWPLILGSGVDIIRRLKEETGVEIIADLKLADIPNTNRLIARKVFGAGADYVIVHTFVGRDSVMAVKELGEIIMVVEMSHPGALEFINPLTDRFIEVANEIEPFGVIAPGTRPERIGYIRDRLKEGIKILAPGIGAQGGKAKDAVKAGADYIIVGRAIYNAPNPREAAKAIYDEIRGV
